The source of these data is article PMC4459106.

Substrate in this data set: CC(C)C[C@H](NC(=O)[C@H](CCCCN)NC(=O)[C@H](C)NC(=O)[C@@H]1CCCN1C(=O)[C@H](CO)NC(=O)[C@H](CCCNC(=N)N)NC(=O)[C@@H]1CCCN1)C(=O)N[C@@H](CO)C(=O)N[C@@H](Cc1ccccc1)C(=O)N[C@@H](CCC(N)=O)C(=O)N[C@@H](Cc1ccccc1)C(=O)N1CCC[C@H]1C(=O)N[C@@H](CO)C(=O)O
Nature of the data set: purified protein, by the assay type. The data set is classed as biochemical, rat (rat ERK2 numbering used throughout). Conditions: other: phosphorylation by 2 nM ppERK2, 1.6–400 μM Elk387-399, 500 μM γ-32P ATP, 25 mM HEPES pH 7.5, 10 mM MgCl2, 30 °C, Michaelis-Menten fit. How it is done: Kinase assays to determine the Michelis-Menten parameters for the phosphorylation of Elk387-399by ppERK2 were performed in 100 μL volumes at 30 °C in a buffer containing 25 mM HEPES pH 7.5, 50 mM KCl, 0.1 mM EDTA, 0.1 mM EGTA, 2 mM DTT, 10 mM MgCl2, and 40 μg/mL BSA. […] The reaction mixture was incubated for 10 minutes at 30 °C before initiation with 500 μM γ-^32P ATP (specific activity of 1 × 10^15 cpm/mol). Aliquots (10 μL) were spotted onto P81 filter papers at fixed times. The filter papers were washed three times for 15 minutes with 50 mM phosphoric acid to remove excess ATP and washed once with acetone for drying. The amount of phosphate incorporated into Elk387-399was determined by the associated counts per minute on a scintillation counter (Packard 1500) at a σ value of 2.

B1: ppERK2 (Rattus norvegicus) (protein)
chain: MAAAAAAGPEMVRGQVFDVGPRYTNLSYIGEGAYGMVCSAYDNLNKVRVAIKKISPFEHQTYCQRTLREIKILLRFRHENIIGINDIIRAPTIEQMKDVYIVQDLMETDLYKLLKTQHLSNDHICYFLYQILRGLKYIHSANVLHRDLKPSNLLLNTTCDLKICDFGLARVADPDHDHTGFLTEYVATRWYRAPEIMLNSKGYTKSIDIWSVGCILAEMLSNRPIFPGKHYLDQLNHILGILGSPSQEDLNCIINLKARNYLLSLPHKNKVPWNRLFPNADSKALDLLDKMLTFNPHKRIEVEQALAHPYLEQYYDPSDEPIAEAPFKFDMELDDLPKEKLKELIFEETARFQPGYRS
notes: made in house
As to B1, the Km (usually the concentration of substrate that gives half-maximal velocity) is 13.4 ± 1.1 µM; the kcat (commonly the number of substrate molecules converted per active site and unit of time at saturation) worked out at 0.56 ± 0.1 s⁻¹.
